# Data as given in article PMC4191430 (Nucleic Acids Research, 2014).
# B1: GST-hSSB1 (natural protein, human (cDNA from A549 cells), UniProt Q9BQ15 1-211, looked up)
# chain: MTTETFVKDIKPGLKNLNLIFIVLETGRVTKTKDGHEVRTCKVADKTGSINISVWDDVGNLIQPGDIIRLTKGYASVFKGCLTLYTGRGGDLQKIGEFCMVYSEVPNFSEPNPEYSTQQAPNKAVQNDSNPSASQPTTGPSAASPASENQNGNGLSAPPGPGGGPHPPHTPSHPPSTRITRSQPNHTPAGPPGPSSNPVSNGKETRRSSKR
# Biological target: T1, HA-Fbxl5 (human (cDNA from A549 cells), UniProt Q9UKA1 1-691)
# T1 sequence (looked up): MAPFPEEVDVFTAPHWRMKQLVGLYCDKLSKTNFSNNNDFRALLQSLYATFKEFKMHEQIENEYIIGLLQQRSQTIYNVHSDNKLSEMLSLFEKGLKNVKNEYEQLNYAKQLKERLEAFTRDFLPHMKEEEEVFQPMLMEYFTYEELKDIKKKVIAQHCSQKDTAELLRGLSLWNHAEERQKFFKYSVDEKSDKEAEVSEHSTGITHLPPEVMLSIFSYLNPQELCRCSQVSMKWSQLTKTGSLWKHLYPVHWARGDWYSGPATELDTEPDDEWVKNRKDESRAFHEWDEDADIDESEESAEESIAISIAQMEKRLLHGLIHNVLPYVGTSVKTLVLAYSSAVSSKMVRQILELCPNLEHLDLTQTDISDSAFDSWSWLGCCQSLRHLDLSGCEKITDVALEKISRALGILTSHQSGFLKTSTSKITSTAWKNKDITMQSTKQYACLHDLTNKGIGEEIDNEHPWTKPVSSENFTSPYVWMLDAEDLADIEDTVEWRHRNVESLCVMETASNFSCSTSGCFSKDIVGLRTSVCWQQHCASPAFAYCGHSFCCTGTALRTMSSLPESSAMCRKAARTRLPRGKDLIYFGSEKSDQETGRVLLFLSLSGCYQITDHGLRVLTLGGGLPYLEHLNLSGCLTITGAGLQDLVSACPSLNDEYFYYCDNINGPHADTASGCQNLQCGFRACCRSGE
# Assay: pull-down
binder,measurement,value
B1,binding result,binds
